Columns and labels:
Experiment in all cases: two-hybrid library CCNG1;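 note: natural log of median RNA to DNA barcode read ratio; higher means stronger binding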
4H918-bN = molecular target: T1, 4H918-bN
T1 chain: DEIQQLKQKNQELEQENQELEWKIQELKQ

4H3926-bN = molecular target: T2, 4H3926-bN
T2 chain: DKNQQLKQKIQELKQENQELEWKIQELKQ

4H3628-bN = molecular target: T3, 4H3628-bN
T3 chain: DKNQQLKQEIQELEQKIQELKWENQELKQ

4H1710-bN = molecular target: T4, 4H1710-bN
T4 chain: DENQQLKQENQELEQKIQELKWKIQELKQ

4H3858-bN = molecular target: T5, 4H3858-bN
T5 chain: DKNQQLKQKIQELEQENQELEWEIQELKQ

4H1985-bN = molecular target: T6, 4H1985-bN
T6 chain: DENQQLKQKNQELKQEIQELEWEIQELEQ

4H3462-bN = molecular target: T7, 4H3462-bN
T7 chain: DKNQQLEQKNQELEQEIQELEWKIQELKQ

4H3817-bN = molecular target: T8, 4H3817-bN
T8 chain: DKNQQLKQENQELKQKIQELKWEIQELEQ

4H3613-bN = molecular target: T9, 4H3613-bN
T9 chain: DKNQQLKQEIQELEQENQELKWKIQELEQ

4H3162-bN = molecular target: T10, 4H3162-bN
T10 chain: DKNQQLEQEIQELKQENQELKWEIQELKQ

4H906-bN = molecular target: T11, 4H906-bN
T11 chain: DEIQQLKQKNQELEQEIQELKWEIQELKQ

4H3497-bN = molecular target: T12, 4H3497-bN
T12 chain: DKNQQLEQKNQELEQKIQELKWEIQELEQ

4H1544-bN = molecular target: T13, 4H1544-bN
T13 chain: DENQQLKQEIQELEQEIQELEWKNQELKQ

4H3298-bN = molecular target: T14, 4H3298-bN
T14 chain: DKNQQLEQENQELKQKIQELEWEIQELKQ

4H1899-bN = molecular target: T15, 4H1899-bN
T15 chain: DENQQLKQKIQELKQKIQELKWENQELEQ

4H3277-bN = molecular target: T16, 4H3277-bN
T16 chain: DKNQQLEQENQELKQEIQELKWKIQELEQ

4H3175-bN = molecular target: T17, 4H3175-bN
T17 chain: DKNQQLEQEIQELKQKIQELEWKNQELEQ

4H570-bN = molecular target: T18, 4H570-bN
T18 chain: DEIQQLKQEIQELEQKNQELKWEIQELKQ

4H626-bN = molecular target: T19, 4H626-bN
T19 chain: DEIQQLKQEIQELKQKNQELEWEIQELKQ

4H3974-bN = molecular target: T20, 4H3974-bN
T20 chain: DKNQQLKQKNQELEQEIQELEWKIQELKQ

4H591-bN = molecular target: T21, 4H591-bN
T21 chain: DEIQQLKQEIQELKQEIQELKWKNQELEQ

4H850-bN = molecular target: T22, 4H850-bN
T22 chain: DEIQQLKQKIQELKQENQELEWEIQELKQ

4H331-bN = molecular target: T23, 4H331-bN
T23 chain: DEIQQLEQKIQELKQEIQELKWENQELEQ

4H370-bN = molecular target: T24, 4H370-bN
T24 chain: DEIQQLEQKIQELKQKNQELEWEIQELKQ

4H3606-bN = molecular target: T25, 4H3606-bN
T25 chain: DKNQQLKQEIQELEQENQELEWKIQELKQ

4H797-bN = molecular target: T26, 4H797-bN
T26 chain: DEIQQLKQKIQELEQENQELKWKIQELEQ

4H4001-bN = molecular target: T27, 4H4001-bN
T27 chain: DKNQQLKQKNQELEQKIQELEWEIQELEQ

4H883-bA = molecular target: T28, 4H883-bA
T28 chain: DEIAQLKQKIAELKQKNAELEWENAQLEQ

4H2697-bN = molecular target: T29, 4H2697-bN
T29 chain: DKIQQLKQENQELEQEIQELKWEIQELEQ

4H953-bN = molecular target: T30, 4H953-bN
T30 chain: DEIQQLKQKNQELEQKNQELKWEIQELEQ

4H3189-bN = molecular target: T31, 4H3189-bN
T31 chain: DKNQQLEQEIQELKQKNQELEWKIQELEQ

4H2667-bN = molecular target: T32, 4H2667-bN
T32 chain: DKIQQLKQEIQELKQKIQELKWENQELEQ

4H883-bN = molecular target: T33, 4H883-bN
T33 chain: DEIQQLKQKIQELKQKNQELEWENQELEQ

4H3782-bN = molecular target: T34, 4H3782-bN
T34 chain: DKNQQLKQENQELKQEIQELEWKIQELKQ

4H967-bN = molecular target: T35, 4H967-bN
T35 chain: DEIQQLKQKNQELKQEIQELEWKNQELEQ

4H607-bN = molecular target: T36, 4H607-bN
T36 chain: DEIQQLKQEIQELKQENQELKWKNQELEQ

4H462-bN = molecular target: T37, 4H462-bN
T37 chain: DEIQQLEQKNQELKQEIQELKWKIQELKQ

4H3843-bN = molecular target: T38, 4H3843-bN
T38 chain: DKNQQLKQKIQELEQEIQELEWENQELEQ

4H687-bN = molecular target: T39, 4H687-bN
T39 chain: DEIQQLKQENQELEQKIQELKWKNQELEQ

4H72-bN = molecular target: T40, 4H72-bN
T40 chain: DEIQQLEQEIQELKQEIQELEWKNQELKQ

4H2610-bN = molecular target: T41, 4H2610-bN
T41 chain: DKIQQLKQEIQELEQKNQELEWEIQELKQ

4H568-bN = molecular target: T42, 4H568-bN
T42 chain: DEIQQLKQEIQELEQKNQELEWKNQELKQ

P7mS = molecular target: T43, P7mS
T43 chain: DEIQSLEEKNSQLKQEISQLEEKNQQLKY

P9mS = molecular target: T44, P9mS
T44 chain: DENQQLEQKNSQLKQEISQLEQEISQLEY

P8mS = molecular target: T45, P8mS
T45 chain: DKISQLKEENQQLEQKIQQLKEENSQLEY

P6mS = molecular target: T46, P6mS
T46 chain: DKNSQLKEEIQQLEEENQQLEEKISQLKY

B1: 4H1544-bN (peptide)
chain: DENQQLKQEIQELEQEIQELEWKNQELKQ
Q: For B1, which interaction score (4H918-bN) is on record?
A: -0.127

Q: And the interaction score (4H3926-bN)?
A: -0.652

Q: What about the interaction score (4H3628-bN) of the same binder?
A: 0.019

Q: What about the interaction score (4H1710-bN) of the same binder?
A: 1.41

Q: What about the interaction score (4H3858-bN) of the same binder?
A: -0.293

Q: And the interaction score (4H1985-bN)?
A: -0.277

Q: What about the interaction score (4H3462-bN) of the same binder?
A: 1.08

Q: And the interaction score (4H3817-bN)?
A: -0.351

Q: And the interaction score (4H3613-bN)?
A: -1.07

Q: What about the interaction score (4H3162-bN) of the same binder?
A: -1.96

Q: And the interaction score (4H906-bN)?
A: -0.343

Q: And the interaction score (4H3497-bN)?
A: 0.211

Q: What about the interaction score (4H1544-bN) of the same binder?
A: -2.02

Q: What about the interaction score (4H3298-bN) of the same binder?
A: -0.192

Q: And the interaction score (4H1899-bN)?
A: 1.82

Q: And the interaction score (4H3277-bN)?
A: -0.11

Q: What about the interaction score (4H3175-bN) of the same binder?
A: 0.167

Q: What about the interaction score (4H570-bN) of the same binder?
A: -0.108

Q: And the interaction score (4H626-bN)?
A: -1.03

Q: And the interaction score (4H3974-bN)?
A: -0.0151

Q: What about the interaction score (4H591-bN) of the same binder?
A: -0.583

Q: What about the interaction score (4H850-bN) of the same binder?
A: 0.669

B2: 4H2610-bN (peptide)
chain: DKIQQLKQEIQELEQKNQELEWEIQELKQ
Q: Which interaction score (4H331-bN) does the source give for B2 here?
A: 0.616

Q: And the interaction score (4H370-bN)?
A: -2.72

Q: And the interaction score (4H3606-bN)?
A: -1.38

Q: And the interaction score (4H797-bN)?
A: -1.16

Q: And the interaction score (4H918-bN)?
A: -0.666

Q: And the interaction score (4H4001-bN)?
A: -0.736

Q: And the interaction score (4H883-bA)?
A: 0.288

Q: What about the interaction score (4H2697-bN) of the same binder?
A: -0.363

Q: And the interaction score (4H953-bN)?
A: -0.363

Q: What about the interaction score (4H3189-bN) of the same binder?
A: -0.821

Q: What about the interaction score (4H2667-bN) of the same binder?
A: 0.011

Q: What about the interaction score (4H883-bN) of the same binder?
A: -0.137

Q: What about the interaction score (4H3782-bN) of the same binder?
A: -1.11

Q: What about the interaction score (4H967-bN) of the same binder?
A: -0.795

Q: And the interaction score (4H607-bN)?
A: -0.966

Q: And the interaction score (4H462-bN)?
A: 1.63

Q: What about the interaction score (4H3843-bN) of the same binder?
A: 0.0276

Q: What about the interaction score (4H687-bN) of the same binder?
A: -1.82

Q: What about the interaction score (4H72-bN) of the same binder?
A: -1.85

Q: What about the interaction score (4H2610-bN) of the same binder?
A: 0.245

Q: And the interaction score (4H568-bN)?
A: -0.762

B3: P6mS (peptide)
chain: DKNSQLKEEIQQLEEENQQLEEKISQLKY
Q: Which results are given for B3?
A: interaction score (P7mS): -2.21; interaction score (P9mS): -0.654; interaction score (P8mS): -0.784; interaction score (P6mS): -0.275
